These results are taken from the Human Domainome abundance scans (Beltran et al. 2025).

B1: Cell division cycle and apoptosis regulator protein 1, residues 625 to 674; numbered along this chain, Q8IX12 (parent)
chain: ISTPTHWSKLDPKTMKVNDLRKELESRALSSKGLKSQLIARLTKQLKVEE

± gives the uncertainty stated by the source.

The variants in this data set derive from B1. Description: abundance fitness (aPCA) (normalised: wild type 0, dead -1); higher = more abundant; growth selection in yeast, the domain comes from the species named. The note with it: Homo sapiens.
As for ISTPTHWSKLDPKTMKVNDLRKELESRALSSKGLKSQLIARLTKQLHVEE [K47H], the abundance fitness is -0.212 ± 0.059.

Take ISTPTHWSKLDPKTMKVNDLRKELESRALSSKGLKSQLIARWTKQLKVEE [L42W]: the abundance fitness is -0.929 ± 0.095.

On to ISTPTHWSKLDPKTMKVNDLRKELESRALSSKGLKSQLIARRTKQLKVEE [L42R], for which the abundance fitness is -0.733 ± 0.038.

Take ISTPTHWSKVDPKTMKVNDLRKELESRALSSKGLKSQLIARLTKQLKVEE [L10V]: the abundance fitness is -0.231 ± 0.033.

For the variant ISTPTHWSKNDPKTMKVNDLRKELESRALSSKGLKSQLIARLTKQLKVEE [L10N], the abundance fitness is -0.516 ± 0.069.

For the variant ISTPTHWSKADPKTMKVNDLRKELESRALSSKGLKSQLIARLTKQLKVEE [L10A], the abundance fitness is -0.474 ± 0.041.

Take ISTPTHWSKWDPKTMKVNDLRKELESRALSSKGLKSQLIARLTKQLKVEE [L10W]: the abundance fitness is -0.953 ± 0.068.

With ISTPTHWSKFDPKTMKVNDLRKELESRALSSKGLKSQLIARLTKQLKVEE [L10F], the abundance fitness is -0.535 ± 0.06.

As to ISTPTHWSKLDPKTMKVNDLRKELESRALSSKGLKSQLIYRLTKQLKVEE [A40Y], the abundance fitness was found to be 0.219 ± 0.043.

In the case of ISTPTHWSKLDPKTMKVNDLRKELESRALSSKGLKSQLILRLTKQLKVEE [A40L], the abundance fitness is -0.095 ± 0.036.

In the case of ISTPTHWSKLDPKTMKVNDLRKELESRALSSKGLKSQLIMRLTKQLKVEE [A40M], the abundance fitness came to 0.034 ± 0.035.

With ISTPTHWSKLDPKTMKVNDLRKELESRALSSKGLKSQLIAWLTKQLKVEE [R41W], the abundance fitness was -0.877 ± 0.069.

Consider ISTPTHWSKLDPKTMKVNDLRKELESRALSSKGLKSQLIAQLTKQLKVEE [R41Q], for which the abundance fitness is -0.466 ± 0.077.

As for ISTPTHWSKLDPKTMKVNDLRKELESRALSSKGLKSQLIADLTKQLKVEE [R41D], the abundance fitness is -0.434 ± 0.096.

In the case of ISTPTHWSKLDPKTMKVNDLRKELESRALSSKGLTSQLIARLTKQLKVEE [K35T], the abundance fitness was -0.276 ± 0.061.

As for ISTPTHWSKLDPKTMKVNDLRKELESRALSSKGLLSQLIARLTKQLKVEE [K35L], the abundance fitness was -0.243 ± 0.043.

As to ISTPTHWSKLDPKTMKVPDLRKELESRALSSKGLKSQLIARLTKQLKVEE [N18P], the abundance fitness was 0.072 ± 0.027.

For ISTPTHWSKLDPKTMKVGDLRKELESRALSSKGLKSQLIARLTKQLKVEE [N18G], the abundance fitness is 0.019 ± 0.032.

As for ISTPTHWSKLDPKVMKVNDLRKELESRALSSKGLKSQLIARLTKQLKVEE [T14V], the abundance fitness is -0.029 ± 0.033.

For ISTPTHWSKLDPKEMKVNDLRKELESRALSSKGLKSQLIARLTKQLKVEE [T14E], the abundance fitness is -0.011 ± 0.034.

Take ISTPTHWSKLDPKRMKVNDLRKELESRALSSKGLKSQLIARLTKQLKVEE [T14R]: the abundance fitness amounted to 0.178 ± 0.034.

For ISTPTHWMKLDPKTMKVNDLRKELESRALSSKGLKSQLIARLTKQLKVEE [S8M], the abundance fitness is -0.254 ± 0.041.

In the case of ISTPTHWIKLDPKTMKVNDLRKELESRALSSKGLKSQLIARLTKQLKVEE [S8I], the abundance fitness was -0.407 ± 0.063.

With ISTPTHWKKLDPKTMKVNDLRKELESRALSSKGLKSQLIARLTKQLKVEE [S8K], the abundance fitness is -0.061 ± 0.052.

For the variant ISTPTHWPKLDPKTMKVNDLRKELESRALSSKGLKSQLIARLTKQLKVEE [S8P], the abundance fitness is -0.616 ± 0.16.

As for ISTPTHWSKLDPKTMKVNDLRKELESRALSSKGEKSQLIARLTKQLKVEE [L34E], the abundance fitness is -0.113 ± 0.031.

With ISTPTHWSKLDPKTMKVNDLYKELESRALSSKGLKSQLIARLTKQLKVEE [R21Y], the abundance fitness was -0.256 ± 0.044.

As for ISTPTHWSKLDPKTMKVNDLRKELESRALSSKSLKSQLIARLTKQLKVEE [G33S], the abundance fitness was -0.934 ± 0.063.

For ISTPTHWSKLDPKTMKVNDLRKELESRALSSKILKSQLIARLTKQLKVEE [G33I], the abundance fitness was -1.04 ± 0.25.

As to ISTPTHWSKLDPKTMKVNDLRKELESRALSSKWLKSQLIARLTKQLKVEE [G33W], the abundance fitness was -1.07 ± 0.073.

ISTPTHWSKLDPKTMKVNDLRKELESRALSSKKLKSQLIARLTKQLKVEE [G33K]: the abundance fitness was -0.939 ± 0.071.

For ISTPTHWSKLDPKTMKVNPLRKELESRALSSKGLKSQLIARLTKQLKVEE [D19P], the abundance fitness is -0.334 ± 0.034.

For ISTPTHWSKLDPKTMKVNDLRKELESRALSSKGLKSQLIARLTKQLKVET [E50T], the abundance fitness was -0.535 ± 0.26.

Take ISTPTHWSKLDPKTMKVNDLRKELESRALSSKGLKSQLIARLTKQLKVEM [E50M]: the abundance fitness is -0.641 ± 0.16.

As for ISTPTHWSKLDPKTMKVNDLRKELESRALSSKGLKSGLIARLTKQLKVEE [Q37G], the abundance fitness was -0.253 ± 0.038.

Turning to ISTPTHWSKLDPKTMKVNDLRKELESRALSFKGLKSQLIARLTKQLKVEE [S31F], the abundance fitness was -0.101 ± 0.053.

Take ISTPTHWSKLDPKTMKVNDLRKELESRALSDKGLKSQLIARLTKQLKVEE [S31D]: the abundance fitness is -0.156 ± 0.05.

On to ISTPTHWSKLDPKTMKVNDLRKELESRALSVKGLKSQLIARLTKQLKVEE [S31V], for which the abundance fitness is -0.041 ± 0.041.

For the variant ISTPTHWSKLDPKTMKVNDLRKELESRALSSKGLKRQLIARLTKQLKVEE [S36R], the abundance fitness was -0.115 ± 0.032.

As to ISTPTHWSKLDPKTMKVNDLRKELESRALSSKGLKLQLIARLTKQLKVEE [S36L], the abundance fitness was -0.159 ± 0.037.

ISTPTHWSKLDPKTMKVNDLRKELESRALSSKGLKSQLIARLTDQLKVEE [K44D]: the abundance fitness was -0.167 ± 0.069.

Consider ISTPTHWSKLDPKTMKVNDLRKELESRALSSKGLKSQLIARLTPQLKVEE [K44P], for which the abundance fitness is -0.652 ± 0.075.

ISTPTHWSKLDPKTMKPNDLRKELESRALSSKGLKSQLIARLTKQLKVEE [V17P]: the abundance fitness was -0.182 ± 0.042.

ISTPTHWSKLDPKTMKQNDLRKELESRALSSKGLKSQLIARLTKQLKVEE [V17Q]: the abundance fitness is -0.082 ± 0.053.

In the case of ISTPTHWSKLDPKTMKVNDLRKELESRAESSKGLKSQLIARLTKQLKVEE [L29E], the abundance fitness is -0.46 ± 0.046.

ISTPTHWSKLDPYTMKVNDLRKELESRALSSKGLKSQLIARLTKQLKVEE [K13Y]: the abundance fitness is -0.23 ± 0.074.

Regarding ISTPTHWSKLDPWTMKVNDLRKELESRALSSKGLKSQLIARLTKQLKVEE [K13W], the abundance fitness was -0.474 ± 0.034.

As for ISTPTHWSKLDPLTMKVNDLRKELESRALSSKGLKSQLIARLTKQLKVEE [K13L], the abundance fitness was -0.241 ± 0.036.

As to ISTPTHWSKLDPPTMKVNDLRKELESRALSSKGLKSQLIARLTKQLKVEE [K13P], the abundance fitness is -0.187 ± 0.047.

Turning to ISTPTHWSKLDPKTMKVNDLRKELESRALSSKGLKSQLIARLTKQLKKEE [V48K], the abundance fitness is 0.009 ± 0.053.

As to ISTPTHWSKLDPKTMKVNDLRKELESRALSSKGLKSQLIARLTKQLKPEE [V48P], the abundance fitness was -0.795 ± 0.046.

Take ISTPTHWSKLDPKTMKVNDLRKELELRALSSKGLKSQLIARLTKQLKVEE [S26L]: the abundance fitness came out at 0.118 ± 0.038.
